Experimental data taken from patent US20240067738A1.
Several values for one entry are separate records, joined by “and”; a condition that tells them apart may be missing. Equal entries are not always repeated.

molecular target: canine FcRn with a poly-His tag and canine B2M heterodimer complex (canine); experiment: SPR (Biacore T200), biotinylated canine FcRn/B2M complex on chip, Fc as analyte, pH 6.0
Sequence (chain, as listed by the source limits assumed, chain 1 of 2): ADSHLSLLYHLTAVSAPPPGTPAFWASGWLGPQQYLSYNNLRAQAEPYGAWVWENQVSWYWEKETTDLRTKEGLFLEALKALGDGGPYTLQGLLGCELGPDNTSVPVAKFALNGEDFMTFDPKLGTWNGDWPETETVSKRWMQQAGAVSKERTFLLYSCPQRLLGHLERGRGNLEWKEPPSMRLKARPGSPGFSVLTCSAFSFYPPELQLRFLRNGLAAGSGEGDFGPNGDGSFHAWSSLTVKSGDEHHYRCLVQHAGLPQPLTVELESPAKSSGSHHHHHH
Sequence (b2m, as listed by the source limits assumed, chain 2 of 2): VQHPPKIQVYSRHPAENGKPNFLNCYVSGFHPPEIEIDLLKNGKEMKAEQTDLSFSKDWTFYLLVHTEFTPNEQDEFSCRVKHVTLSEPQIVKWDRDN

| Binder | koff |
| --- | --- |
| variant canine IgG-B Fc polypeptide L(23)S (SASA tag) (protein, part only; not given: SASA tag, not shown: another chain or arm of the molecule; small tags and cut ends) Fc: PAPEMLGGPSVFIFPPKPKDTLSIARTPEVTCVVVDLDPEDPEVQISWFVDGKQMQTAKTQPREEQFNGTYRVVSVLPIGHQDWLKGKQFTCKVNNKALPSPIERTISKARGQAHQPSVYVLPPSREELSKNTVSLTCLIKDFFPPDIDVEWQSNGQQEPESKYRTTPPQLDEDGSYFLYSKLSVDKSRWQRGDTFICAVMHEALHNHYTQESLSHSPGK | 0.241 s⁻¹ |
| variant canine IgG-B Fc polypeptide L(23)F (SASA tag) (protein, part only; not given: SASA tag, not shown: another chain or arm of the molecule; small tags and cut ends) Fc: PAPEMLGGPSVFIFPPKPKDTLFIARTPEVTCVVVDLDPEDPEVQISWFVDGKQMQTAKTQPREEQFNGTYRVVSVLPIGHQDWLKGKQFTCKVNNKALPSPIERTISKARGQAHQPSVYVLPPSREELSKNTVSLTCLIKDFFPPDIDVEWQSNGQQEPESKYRTTPPQLDEDGSYFLYSKLSVDKSRWQRGDTFICAVMHEALHNHYTQESLSHSPGK | 0.0631 s⁻¹ and 0.0847 s⁻¹ |
| variant canine IgG-B Fc polypeptide L(23)Y (SASA tag) (protein, part only; not given: SASA tag, not shown: another chain or arm of the molecule; small tags and cut ends) Fc: PAPEMLGGPSVFIFPPKPKDTLYIARTPEVTCVVVDLDPEDPEVQISWFVDGKQMQTAKTQPREEQFNGTYRVVSVLPIGHQDWLKGKQFTCKVNNKALPSPIERTISKARGQAHQPSVYVLPPSREELSKNTVSLTCLIKDFFPPDIDVEWQSNGQQEPESKYRTTPPQLDEDGSYFLYSKLSVDKSRWQRGDTFICAVMHEALHNHYTQESLSHSPGK | 0.0138 s⁻¹ |

Second part, the binder after the results:

| koff | Binder |
| --- | --- |
| 0.122 s⁻¹ | wild-type canine IgG-B Fc polypeptide (SASA tag) (protein, part only; not given: SASA tag, not shown: another chain or arm of the molecule; small tags and cut ends) Fc: PAPEMLGGPSVFIFPPKPKDTLLIARTPEVTCVVVDLDPEDPEVQISWFVDGKQMQTAKTQPREEQFNGTYRVVSVLPIGHQDWLKGKQFTCKVNNKALPSPIERTISKARGQAHQPSVYVLPPSREELSKNTVSLTCLIKDFFPPDIDVEWQSNGQQEPESKYRTTPPQLDEDGSYFLYSKLSVDKSRWQRGDTFICAVMHEALHNHYTQESLSHSPGK |
| 0.126 s⁻¹ | variant canine IgG-B Fc polypeptide L(23)M (SASA tag) (protein, part only; not given: SASA tag, not shown: another chain or arm of the molecule; small tags and cut ends) Fc: PAPEMLGGPSVFIFPPKPKDTLMIARTPEVTCVVVDLDPEDPEVQISWFVDGKQMQTAKTQPREEQFNGTYRVVSVLPIGHQDWLKGKQFTCKVNNKALPSPIERTISKARGQAHQPSVYVLPPSREELSKNTVSLTCLIKDFFPPDIDVEWQSNGQQEPESKYRTTPPQLDEDGSYFLYSKLSVDKSRWQRGDTFICAVMHEALHNHYTQESLSHSPGK |
